This experiment deals with T1, GST-RhoB(17A), nucleotide free RhoB mutant (UniProt P62745 1-196, G17A).
T1 construct: RhoB, small GTPase of the Rho family, with the nucleotide-free mutation G17A; also called nucleotide-free mutant of RhoB; nucleotide-free Rho mutants (G17A)
The experiment can be described thus: pull-down; 20 ug purified GST-RhoB(17A) on glutathione-sepharose beads, incubated with clarified MCF-7 lysates for 60 min at 4 C; cells mock-treated or irradiated with 5 Gy (also 400 uM 5-FU for 72 h); immunoblot for the GEFs. Particulars: one partner purified.

Bounds are passed on as bounds.

T1 sequence (P62745 whole entry G17A): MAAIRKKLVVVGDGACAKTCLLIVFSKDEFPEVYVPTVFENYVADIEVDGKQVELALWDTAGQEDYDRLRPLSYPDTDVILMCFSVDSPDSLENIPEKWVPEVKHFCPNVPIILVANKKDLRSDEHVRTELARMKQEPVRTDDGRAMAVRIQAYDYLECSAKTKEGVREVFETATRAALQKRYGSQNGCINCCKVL

B1: epithelial cell transforming sequence 2 (Ect2) (natural protein, human (endogenous in MCF-7 and HeLa), UniProt Q9H8V3 1-914, looked up)
chain: MAENSVLTSTTGRTSLADSSIFDSKVTEISKENLLIGSTSYVEEEMPQIETRVILVQEAGKQEELIKALKTIKIMEVPVIKIKESCPGKSDEKLIKSVINMDIKVGFVKMESVEEFEGLDSPEFENVFVVTDFQDSVFNDLYKADCRVIGPPVVLNCSQKGEPLPFSCRPLYCTSMMNLVLCFTGFRKKEELVRLVTLVHHMGGVIRKDFNSKVTHLVANCTQGEKFRVAVSLGTPIMKPEWIYKAWERRNEQDFYAAVDDFRNEFKVPPFQDCILSFLGFSDEEKTNMEEMTEMQGGKYLPLGDERCTHLVVEENIVKDLPFEPSKKLYVVKQEWFWGSIQMDARAGETMYLYEKANTPELKKSVSMLSLNTPNSNRKRRRLKETLAQLSRETDVSPFPPRKRPSAEHSLSIGSLLDISNTPESSINYGDTPKSCTKSSKSSTPVPSKQSARWQVAKELYQTESNYVNILATIIQLFQVPLEEEGQRGGPILAPEEIKTIFGSIPDIFDVHTKIKDDLEDLIVNWDESKSIGDIFLKYSKDLVKTYPPFVNFFEMSKETIIKCEKQKPRFHAFLKINQAKPECGRQSLVELLIRPVQRLPSVALLLNDLKKHTADENPDKSTLEKAIGSLKEVMTHINEDKRKTEAQKQIFDVVYEVDGCPANLLSSHRSLVQRVETISLGEHPCDRGEQVTLFLFNDCLEIARKRHKVIGTFRSPHGQTRPPASLKHIHLMPLSQIKKVLDIRETEDCHNAFALLVRPPTEQANVLLSFQMTSDELPKENWLKMLCRHVANTICKADAENLIYTADPESFEVNTKDMDSTLSRASRAIKKTSKKVTRAFSFSKTPKRALRRALMTSHGSVEGRSPSSNDKHVMSRLSSTSSLAGIPSPSLVSLPSFFERRSHTLSRSTTHLI
notes: Ect2, nuclear guanine nucleotide exchange factor, endogenous in human cancer cell lines, detected by immunoblot (sc-1005); source: endogenous, MCF-7 lysate; endogenous, HeLa lysate
Consider B1, for which the “fold increase in binding after IR over mock-treated” value is at least 5 fold.

B2: neuroepithelial transforming gene 1 (Net1) (natural protein, human (endogenous in MCF-7 and HeLa), UniProt Q7Z628 1-596, looked up)
chain: MEPELAAQKQPRPRRRSRRASGLSTEGATGPSADTSGSELDGRCSLRRGSSFTFLTPGPNWDFTLKRKRREKDDDVVSLSSLDLKEPSNKRVRPLARVTSLANLISPVRNGAVRRFGQTIQSFTLRGDHRSPASAQKFSSRSTVPTPAKRRSSALWSEMLDITMKESLTTREIRRQEAIYEMSRGEQDLIEDLKLARKAYHDPMLKLSIMSEEELTHIFGDLDSYIPLHEDLLTRIGEATKPDGTVEQIGHILVSWLPRLNAYRGYCSNQLAAKALLDQKKQDPRVQDFLQRCLESPFSRKLDLWSFLDIPRSRLVKYPLLLKEILKHTPKEHPDVQLLEDAILIIQGVLSDINLKKGESECQYYIDKLEYLDEKQRDPRIEASKVLLCHGELRSKSGHKLYIFLFQDILVLTRPVTRNERHSYQVYRQPIPVQELVLEDLQDGDVRMGGSFRGAFSNSEKAKNIFRIRFHDPSPAQSHTLQANDVFHKQQWFNCIRAAIAPFQSAGSPPELQGLPELHEECEGNHPSARKLTAQRRASTVSSVTQVEVDENAYRCGSGMQMAEDSKSLKTHQTQPGIRRARDKALSGGKRKETLV
notes: Net1, nuclear guanine nucleotide exchange factor, endogenous in human cancer cell lines, detected by immunoblot; source: endogenous, MCF-7 lysate; endogenous, HeLa lysate
In the case of B2, the “fold increase in binding after IR over mock-treated” value was at least 5 fold.

These data come from paper PMC3044157, “The Nuclear Guanine Nucleotide Exchange Factors Ect2 and Net1 Regulate RhoB-Mediated Cell Death after DNA Damage” (PLoS ONE, 2011).
